Assay results: patent US20240368239A1, “Novel bispecific protein and use thereof” (SL METAGEN, priority 2020, published 2024)

How the values were obtained:
[1] = target: GLP-1 receptor; assay: cell-based or functional assay
[2] = target: human GLP-2 receptor (human) (UniProt O95838); assay: cell-based or functional assay
Chain of human GLP-2 receptor (human) (O95838 whole entry): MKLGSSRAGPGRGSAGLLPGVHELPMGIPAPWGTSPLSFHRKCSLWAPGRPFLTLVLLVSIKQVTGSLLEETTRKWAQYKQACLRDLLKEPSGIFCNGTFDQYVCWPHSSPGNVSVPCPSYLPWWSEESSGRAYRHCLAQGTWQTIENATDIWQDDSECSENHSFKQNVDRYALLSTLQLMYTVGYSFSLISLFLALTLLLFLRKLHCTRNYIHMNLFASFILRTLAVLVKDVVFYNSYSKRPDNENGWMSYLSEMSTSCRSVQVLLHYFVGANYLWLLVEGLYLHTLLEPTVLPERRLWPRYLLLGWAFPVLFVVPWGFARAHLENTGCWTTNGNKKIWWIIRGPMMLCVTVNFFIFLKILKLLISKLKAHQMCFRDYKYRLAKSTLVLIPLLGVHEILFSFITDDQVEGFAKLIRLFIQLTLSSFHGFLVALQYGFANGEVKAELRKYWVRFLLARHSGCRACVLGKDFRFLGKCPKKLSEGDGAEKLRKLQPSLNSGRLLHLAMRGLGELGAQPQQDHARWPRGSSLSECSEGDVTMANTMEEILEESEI

Substance	EC50 (pM), cAMP luciferase reporter in GLP1R cAMP/luc cells [1] [pM]	vs. GLP-1 relative activity (%) [1] [%]	EC50 (nM), cAMP-gated CNG channel membrane potential dye fluorescence (Ft/F0) in Human GLP2R ACTOne cells [2] [nM]	vs. GLP-2 relative activity (%) [2] [%]
native GLP-1 peptide (from UniProt P01275 98-127)	26	100	–	–
native GLP-2 peptide (from UniProt P01275 146-178)	–	–	0.58	100
